Key:
Assay in all cases: Yeast two hybrid (Y2H) analysis of PCNA-partner interaction
Format in all cases: binding
Parameters in all cases: key: ++: major increase in growth; +: moderate increase in growth; similar growth as the WT PCNA-expressing cells; -: minor decrease in growth; --: moderate decrease in growth; ---: major decrease in growth
Settings in all cases: spotting onto selective agar plates; PCNA fused to AD, partner to BD
Eco1 = test system: Eco1
Method: (§1) Y2H analysis was performed using the Yeast Two Hybrid Phagemid vector kit (Stratagene), following the manufacturer's instructions. The pAD-PCNA-WT/mutant plasmids were used as bait while plasmids encoding 12 different PCNA partners (Table 1 and Table S1) were used as prey. The YRG2 host strain (Stratagene) was cotransformed with pAD-PCNA WT/mutant and pBD-partner plasmids in all possible combinations using the LiAC method. Single transformants were grown in liquid SC-Leu-Trp to O.D600 10, washed twice with DDW, and diluted to an initial OD600 of 0.3. A series of 10-fold serial dilutions was then spotted onto selective SC-Leu-Trp-His plates and incubated at 30°C for 3 d. For quantitative Y2H, the generation time of the indicated mutants and their respective partners were calculated from their growth curves in liquid SC-Leu-Trp-His media. Cells were grown overnight in SC-Leu-Trp, washed twice with ddH2O, and diluted by a factor of 1∶50 into 10 ml of pre-warmed SC-Leu-Trp-His. O.D600 measurements of the cultures were taken at the indicated time; the generation time (τ) was calculated from the growth curves according to the equation ODt = OD0×2^t/τ. The generation time calculated for each culture is an average of at least 3 independent experiments.
(§2) Table S1: Yeast two hybrid analysis of binding of selected PCNA mutants with seven additional partners not described in Table 1 of the main text. […]
(§3) pol30-Rad30E2 WT WT WT WT WT WT - pol30-Rad30E9 WT WT WT WT WT WT WT pol30-Rad27E6 WT WT WT WT + WT WT pol30-Rad27E31 WT WT WT WT + WT WT pol30-Rad27L1 WT -- WT WT -- WT WT pol30-Rad27L2 WT -- WT WT -- WT WT pol30-Pol32E5 WT WT WT WT WT WT WT pol30-Pol32E9 - WT WT WT WT WT WT pol30-Msh6E2 WT WT + WT WT WT WT pol30-Msh6E6 WT WT ++ WT WT WT WT pol30-Ung1E3 WT - WT WT WT WT WT pol30-79 --- --- --- - --- --- --- a PCNA mutants with enhanced affinities for the different target partners (see Table 1, text). b PCNA mutants were fused to the activating domain (AD), while the different partners were fused to the DNA-binding domain (BD). The growth of the resulting Y2H strains was compared to the growth of the WT PCNA-expressing strain following spotting onto selective agar plates (see Material and Methods). Growth rates on the agar plates were scored and tabulated as follows: ++ major increase in growth; + moderate increase in growth; WT-similar growth as the WT PCNA-expressing cells; - minor decrease in growth; -- moderate decrease in growth; --- major decrease in growth. ND-Not determined.

Rrm3 = test system: Rrm3
Method: as §1, §2, §3

Rfc1 = test system: Rfc1
Method: as §1, §2, §3

Cac1 = test system: Cac1
Method: as §1, §2, §3

Cdc9 = test system: Cdc9
Method: as §1, §2, §3

Msh3 = test system: Msh3
Method: as §1, §2, §3

Apn2 = test system: Apn2
Method: as §1, §2, §3

Molecule	Y2H growth relative to WT PCNA-expressing strain: Eco1 (Eco1)	Y2H growth relative to WT PCNA-expressing strain: Rrm3 (Rrm3)	Y2H growth relative to WT PCNA-expressing strain: Rfc1 (Rfc1)	Y2H growth relative to WT PCNA-expressing strain: Cac1 (Cac1)	Y2H growth relative to WT PCNA-expressing strain: Cdc9 (Cdc9)	Y2H growth relative to WT PCNA-expressing strain: Msh3 (Msh3)	Y2H growth relative to WT PCNA-expressing strain: Apn2 (Apn2)
pol30-Msh6E6: PCNA mutant evolved for Msh6, IDCL sequence DYDKDLLKIIEL (protein, left off: Gal4 activation domain, end not stated, kept) MLEAKFEEASLFKRIIDGFKDCVQLVNFQCKEDGIIAQAVDDSRVLLVSLEIGVEAFQEYRCDHPVTLGMDLTSLSKILRCGNNTDTLTLIADNTPDSIILLFEDTKKDRIAEYSLKLMDYDKDLLKIIELQYDSTLSLPSSEFSKIVRDLSQLSDSINIMITKETIKFVADGDIGSGSVIIKPFVDMEHPETSIKLEMDQPVDLTFGAKYLLDIIKGSSLSDRVGIRLSSEAPALFQFDLKSGFLQFFLAPKFNDEE	WT	WT	WT	WT	WT	++	WT
pol30-Rad30E2: PCNA mutant evolved for Rad30, IDCL sequence DDDWDFLKILEL (protein, left off: Gal4 activation domain, end not stated, kept) MLEAKFEEASLFKRIIDGFKDCVQLVNFQCKEDGIIAQAVDDSRVLLVSLEIGVEAFQEYRCDHPVTLGMDLTSLSKILRCGNNTDTLTLIADNTPDSIILLFEDTKKDRIAEYSLKLMDDDWDFLKILELQYDSTLSLPSSEFSKIVRDLSQLSDSINIMITKETIKFVADGDIGSGSVIIKPFVDMEHPETSIKLEMDQPVDLTFGAKYLLDIIKGSSLSDRVGIRLSSEAPALFQFDLKSGFLQFFLAPKFNDEE	WT	WT	WT	WT	WT	WT	-
pol30-Pol32E9 (protein, left off: Gal4 activation domain, end not stated, kept) MLEAKFEEASLFKRIIDGFKDCVQLVNFQCKEDGIIAQAVDDSRVLLVSLEIGVEAFQEYRCDHPVTLGMDLTSLSKILRCGNNTDTLTLIADNTPDSIILLFEDTKKDRIAEYSLKLMDNDVDSLKIIELQYDSTLSLPSSEFSKIVRDLSQLSDSINIMITKETIKFVADGDIGSGSVIIKPFVDMEHPETSIKLEMDQPVDLTFGAKYLLDIIKGSSLSDRVGIRLSSEAPALFQFDLKSGFLQFFLAPKFNDEE	WT	WT	WT	WT	-	WT	WT
pol30-79: previously studied PCNA mutant with decreased partner binding, IDCL sequence DIDADFAKAEEL (protein, left off: Gal4 activation domain, end not stated, kept) MLEAKFEEASLFKRIIDGFKDCVQLVNFQCKEDGIIAQAVDDSRVLLVSLEIGVEAFQEYRCDHPVTLGMDLTSLSKILRCGNNTDTLTLIADNTPDSIILLFEDTKKDRIAEYSLKLMDIDADFAKAEELQYDSTLSLPSSEFSKIVRDLSQLSDSINIMITKETIKFVADGDIGSGSVIIKPFVDMEHPETSIKLEMDQPVDLTFGAKYLLDIIKGSSLSDRVGIRLSSEAPALFQFDLKSGFLQFFLAPKFNDEE	---	---	-	---	---	---	---
pol30-Pol32E5: PCNA mutant evolved for Pol32, IDCL sequence DADNDFLKISEL (protein, left off: Gal4 activation domain, end not stated, kept) MLEAKFEEASLFKRIIDGFKDCVQLVNFQCKEDGIIAQAVDDSRVLLVSLEIGVEAFQEYRCDHPVTLGMDLTSLSKILRCGNNTDTLTLIADNTPDSIILLFEDTKKDRIAEYSLKLMDADNDFLKISELQYDSTLSLPSSEFSKIVRDLSQLSDSINIMITKETIKFVADGDIGSGSVIIKPFVDMEHPETSIKLEMDQPVDLTFGAKYLLDIIKGSSLSDRVGIRLSSEAPALFQFDLKSGFLQFFLAPKFNDEE	WT	WT	WT	WT	WT	WT	WT
pol30-Rad27E6: PCNA mutant evolved for Rad27, IDCL sequence DGDYDILKIREL (protein, left off: Gal4 activation domain, end not stated, kept) MLEAKFEEASLFKRIIDGFKDCVQLVNFQCKEDGIIAQAVDDSRVLLVSLEIGVEAFQEYRCDHPVTLGMDLTSLSKILRCGNNTDTLTLIADNTPDSIILLFEDTKKDRIAEYSLKLMDGDYDILKIRELQYDSTLSLPSSEFSKIVRDLSQLSDSINIMITKETIKFVADGDIGSGSVIIKPFVDMEHPETSIKLEMDQPVDLTFGAKYLLDIIKGSSLSDRVGIRLSSEAPALFQFDLKSGFLQFFLAPKFNDEE	WT	WT	WT	+	WT	WT	WT

Source: article PMC2953525, “Subtle Alterations in PCNA-Partner Interactions Severely Impair DNA Replication and Repair” (PLoS Biology, 2010)
